Source: publication doi:10.1101/2020.01.17.910273, “Ribosome association primes the stringent factor Rel for recruitment of deacylated tRNA to ribosomal A-site”

How the values were obtained:
Test in all cases: EMSA; EMSA: HEPES:Polymix buffer, 5 mM Mg2+, 0.1 uM tRNA or mRNA(MVF), with or without 1 uM mRNA(MVF) competitor, 5 min at 37 C; pH not in material
Conditions in all cases: protein: recombinant; single strand
Rel NTD = Rel NTD (Bacillus subtilis, UniProt O54408 1-373)
Rel TGS-Helical = Rel TGS-Helical (Bacillus subtilis, UniProt O54408 374-583)
Rel = Rel (Bacillus subtilis, UniProt O54408 1-734)
Sequence of Rel (O54408 whole entry): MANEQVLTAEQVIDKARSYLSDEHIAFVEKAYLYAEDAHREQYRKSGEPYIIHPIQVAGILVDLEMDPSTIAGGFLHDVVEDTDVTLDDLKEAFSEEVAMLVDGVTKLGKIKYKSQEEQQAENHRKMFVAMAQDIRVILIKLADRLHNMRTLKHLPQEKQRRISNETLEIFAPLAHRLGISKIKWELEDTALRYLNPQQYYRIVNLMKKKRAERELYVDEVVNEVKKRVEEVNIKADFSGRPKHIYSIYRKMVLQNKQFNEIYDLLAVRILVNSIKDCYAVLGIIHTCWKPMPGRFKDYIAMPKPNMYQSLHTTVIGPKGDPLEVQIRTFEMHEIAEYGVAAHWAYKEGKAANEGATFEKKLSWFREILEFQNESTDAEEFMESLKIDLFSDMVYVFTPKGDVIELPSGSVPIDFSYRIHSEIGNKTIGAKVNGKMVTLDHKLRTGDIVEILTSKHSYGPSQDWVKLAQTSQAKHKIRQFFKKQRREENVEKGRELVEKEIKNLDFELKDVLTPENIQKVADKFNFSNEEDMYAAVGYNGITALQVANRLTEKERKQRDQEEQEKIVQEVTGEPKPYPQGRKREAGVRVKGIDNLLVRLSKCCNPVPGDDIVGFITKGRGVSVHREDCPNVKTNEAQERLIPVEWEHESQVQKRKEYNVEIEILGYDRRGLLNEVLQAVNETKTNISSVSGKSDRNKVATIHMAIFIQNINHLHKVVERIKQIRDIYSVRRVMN

Sequence of Rel NTD (O54408 1-373): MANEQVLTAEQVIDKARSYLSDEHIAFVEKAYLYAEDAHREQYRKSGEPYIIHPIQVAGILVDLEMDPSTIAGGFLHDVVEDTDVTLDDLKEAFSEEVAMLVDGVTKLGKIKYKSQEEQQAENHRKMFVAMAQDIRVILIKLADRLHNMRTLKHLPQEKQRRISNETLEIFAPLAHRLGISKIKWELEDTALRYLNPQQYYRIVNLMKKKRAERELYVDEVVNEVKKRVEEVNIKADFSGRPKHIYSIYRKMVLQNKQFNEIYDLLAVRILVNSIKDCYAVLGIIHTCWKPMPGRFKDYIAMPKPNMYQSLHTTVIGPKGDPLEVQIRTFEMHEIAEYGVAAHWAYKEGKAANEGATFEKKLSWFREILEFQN
Sequence of Rel TGS-Helical (O54408 374-583): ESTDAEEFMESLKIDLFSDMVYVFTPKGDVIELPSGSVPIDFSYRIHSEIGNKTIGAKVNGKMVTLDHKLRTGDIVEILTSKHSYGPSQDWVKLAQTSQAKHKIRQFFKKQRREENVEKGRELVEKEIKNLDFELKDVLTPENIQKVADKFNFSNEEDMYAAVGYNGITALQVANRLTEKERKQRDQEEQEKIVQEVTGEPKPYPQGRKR

Binder: GGCAAGGAGGAGAUAAGAAUGGUUUUCUAAUA (ssRNA) [mRNA(MVF)]
- apparent K (half saturation) (Rel NTD): 680 ± 30 nM
- binding result (Rel TGS-Helical): no binding
- apparent K (half saturation) (Rel): 490 ± 10 nM
